Experimental data taken from ChEMBL document CHEMBL2074321, “A continuous fluorescence assay for the study of P-glycoprotein-mediated drug efflux using inside-out membrane vesicles” (Anal Biochem, 1999).

Tested on: COc1cc2c(c(OC)c1OC)-c1ccc(OC)c(=O)cc1[C@@H](NC(C)=O)CC2
Test: TP_TRANSPORTER: uptake in membranes from CEM/VLB100 cells
Format: functional, cell membranes, Membrane

In the case of “ATP-dependent translocase ABCB1 (Homo sapiens)”, the Km is reported as 1.33 µM.
